From patent publication US20220259289A1 (Janssen / Centocor, published 2022)
Positions count from the first letter of the chain named. Blank lines part the entries; values can stand above or below the binder they belong to.

Assays:
Assay in all cases: ELISA, bacterial lysate on plate-bound antigen, luminescence
[1] = molecular target: unrelated Fc-fused recombinant protein (negative control)
[2] = molecular target: T1, human serum albumin (human, UniProt P02768 25-609)
T1 construct: Negative control antigen of the screening ELISA; also called HSA
Description: (§1) Streptavidin-coated Maxisorp plates (Nunc catalog 436110) were blocked for 1 h in Starting Block T20 (Pierce) and then coated with biotinylated CD137 (using same antigen as in panning) or negative controls (an unrelated Fc-fused recombinant protein and human serum albumin) for 1 h. Plates were rinsed with TBST and diluted lysate was applied to plates for 1 h. Following additional rinses, wells were treated with HRP-conjugated anti-Centyrin antibody (PAB25) for 1 h and then assayed with POD (Roche catalog 11582950001).

[3] = molecular target: T2, recombinant biotinylated human CD137 protein (Fc-fusion protein, R&D Systems 838-4B) (human, UniProt Q07011 24-186, biotinylated (site not stated))
T2 construct: Bought Fc fusion; The ELISA used the same antigen as the panning; also called CD137-Fc; biotinylated CD137; not shown: Fc part of the bought fusion protein
Description: as §1

T1 sequence (P02768 25-609 limits assumed): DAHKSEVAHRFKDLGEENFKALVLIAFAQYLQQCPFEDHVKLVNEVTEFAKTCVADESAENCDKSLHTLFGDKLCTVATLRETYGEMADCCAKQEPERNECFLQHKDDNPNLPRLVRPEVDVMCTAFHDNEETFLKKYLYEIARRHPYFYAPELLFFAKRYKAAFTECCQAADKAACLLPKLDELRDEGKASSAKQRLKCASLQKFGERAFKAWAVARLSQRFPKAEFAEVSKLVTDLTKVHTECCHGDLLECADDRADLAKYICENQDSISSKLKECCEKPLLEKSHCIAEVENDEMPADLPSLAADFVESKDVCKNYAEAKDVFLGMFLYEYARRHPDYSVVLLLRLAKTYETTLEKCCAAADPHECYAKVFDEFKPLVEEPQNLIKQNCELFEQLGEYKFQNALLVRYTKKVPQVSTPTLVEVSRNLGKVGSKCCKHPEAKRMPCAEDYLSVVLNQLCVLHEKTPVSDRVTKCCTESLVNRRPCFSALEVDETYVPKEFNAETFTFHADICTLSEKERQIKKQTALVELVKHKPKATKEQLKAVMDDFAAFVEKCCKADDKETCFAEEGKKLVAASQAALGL

B1: ISOP120ER5P1A7 (designed binder, not shown: small tags and cut ends)
chain: LPAPKNLVVSRVTEDSARLSWTAPDAAFDSFNIGYYERIIPGEAIVLTVPGSERSYDLTGLKPGTEYSVLICGVKGGKGSIPLSAIFTT
notes: FN3 domain (Centyrin); tested as E. coli lysate
ELISA Fc Control (RLU) [1]: 400 RLU | ELISA HSA (RLU) [2]: 400 RLU | ELISA CD137-Fc (RLU) [3]: 1.11e+06 RLU

B2: ISOP120BR5P1D3 (designed binder, not shown: small tags and cut ends)
chain: LPAPKNLVVSRVTEDSARLSWSEHPTPFATFDSFLIQYQESEKVGEAIVLTVPGSERSYDLTGLKPGTEYTVSIYGVWWVENHFPVSNPLSAIFTT
notes: as for B1
ELISA Fc Control (RLU) [1]: 240 RLU | ELISA HSA (RLU) [2]: 400 RLU | ELISA CD137-Fc (RLU) [3]: 1.14e+06 RLU

B6: ISOP120BR5P1G4 (designed binder, not shown: small tags and cut ends)
chain: LPAPKNLVVSRVTEDSARLSWAGHYRKIRNFDSFLIQYQESEKVGEAIVLTVPGSERSYDLTGLKPGTEYTVSIYGVKFPYYYATADSNPLSAIFTT
notes: as for B1
ELISA Fc Control (RLU) [1]: 480 RLU | ELISA HSA (RLU) [2]: 400 RLU | ELISA CD137-Fc (RLU) [3]: 580000 RLU

B7: ISOP120BR5P1A5 (designed binder, not shown: small tags and cut ends)
chain: B6 chain with E56K
notes: as for B1
ELISA Fc Control (RLU) [1]: 640 RLU | ELISA HSA (RLU) [2]: 400 RLU | ELISA CD137-Fc (RLU) [3]: 503000 RLU

B9: ISOP120ER5P1F4 (designed binder, not shown: small tags and cut ends)
chain: LPAPKNLVVSRVTEDSARLSWTAPDAAFDSFVIRYIEDTVMGEAIVLTVPGSERSYDLTGLKPGTEYHVSIEGVKGGPSSLPLSAIFTT
notes: as for B1
ELISA Fc Control (RLU) [1]: 320 RLU | ELISA HSA (RLU) [2]: 400 RLU | ELISA CD137-Fc (RLU) [3]: 537000 RLU

B11: ISOP120BR5P1B7 (designed binder, not shown: small tags and cut ends)
chain: LPAPKNLVVSRVTEDSARLSWGAKTRQFDSFLIQYQESEKVGEAIVLTVPGSERSYDLTGLKPGTEYTVSIYGVWWVENHFPVSNPLSAIFTT
notes: as for B1
ELISA Fc Control (RLU) [1]: 400 RLU | ELISA HSA (RLU) [2]: 480 RLU | ELISA CD137-Fc (RLU) [3]: 565000 RLU

B14: ISOP120FR5P1E10 (designed binder, not shown: small tags and cut ends)
chain: LPAPKNLVVSRVTEDSARLSWTAPDAAFDSFLIHYTEQPSKGEAIVLTVPGSERSYDLTGLKPGTEYQVPIGVKGGTQSCPLSAIFTT
notes: as for B1
ELISA Fc Control (RLU) [1]: 240 RLU | ELISA HSA (RLU) [2]: 320 RLU | ELISA CD137-Fc (RLU) [3]: 953000 RLU

B15: ISOP120BR5P1B9 (designed binder, not shown: small tags and cut ends)
chain: LPAPKNLVVSRVTEDSARLSWAVEFNPTKFDSFLIQYQESEKVGEAIVLTVPGSERSYDLTGLKPGTEYTVSIYGVWWFEQWYPVSNPLSAIFTT
notes: as for B1
ELISA Fc Control (RLU) [1]: 560 RLU | ELISA HSA (RLU) [2]: 400 RLU | ELISA CD137-Fc (RLU) [3]: 358000 RLU

Other lines, results leading:

ELISA Fc Control (RLU) [1]: 320 RLU | ELISA HSA (RLU) [2]: 560 RLU | ELISA CD137-Fc (RLU) [3]: 1.27e+06 RLU
B3: ISOP120BR5P1C9 (designed binder, not shown: small tags and cut ends)
chain: LPAPKNLVVSRVTEDSARLSWAWNRHDFDSFLIQYQESEKVGEAIVLTVPGSERSYDLTGLKPGTEYTVSIYGVHWTVLRPFIDSNPLSAIFTT
notes: as for B1

ELISA Fc Control (RLU) [1]: 480 RLU | ELISA HSA (RLU) [2]: 640 RLU | ELISA CD137-Fc (RLU) [3]: 906000 RLU
B4: ISOP120BR5P1E8 (designed binder, not shown: small tags and cut ends)
chain: LPAPKNLVVSRVTEDSARLSWNGGEYWVPRFDSFLIQYQESEKVGEAIVLTVPGSERSYDLTGLKPGTEYTVSIYGVVWLQWISWTDSNPLSAIFTT
notes: as for B1

ELISA Fc Control (RLU) [1]: 720 RLU | ELISA HSA (RLU) [2]: 400 RLU | ELISA CD137-Fc (RLU) [3]: 810000 RLU
B5: ISOP120ER5P1E10 (designed binder, not shown: small tags and cut ends)
chain: LPAPKNLVVSRVTEDSARLSWTAPDAAFDSFEIYYMEDFHSGEAIVLTVPGSERSYDLTGLKPGTEYWVTIYGVEGGTGSLPLSAIFTT
notes: as for B1

ELISA Fc Control (RLU) [1]: 320 RLU | ELISA HSA (RLU) [2]: 240 RLU | ELISA CD137-Fc (RLU) [3]: 520000 RLU
B8: ISOP120HR5P1B5 (designed binder, not shown: small tags and cut ends)
chain: B9 chain with V32I, D38E, T39G, V40Y, M41Y, S70G, P78Y, S79Y, L81Y
notes: as for B1

ELISA Fc Control (RLU) [1]: 320 RLU | ELISA HSA (RLU) [2]: 400 RLU | ELISA CD137-Fc (RLU) [3]: 1.18e+06 RLU
B10: ISOP120FR5P1E9 (designed binder, not shown: small tags and cut ends)
chain: LPAPKNLVVSRVTEDSARLSWTAPDAAFDSFIIYYPEYISNGEAIVLTVPGSERSYDLTGLKPGTEYHVTIGVKGGHSWPLSAIFTT
notes: as for B1

ELISA Fc Control (RLU) [1]: 720 RLU | ELISA HSA (RLU) [2]: 800 RLU | ELISA CD137-Fc (RLU) [3]: 1.44e+06 RLU
B12: ISOP120ER5P1B12 (designed binder, not shown: small tags and cut ends)
chain: LPAPKNLVVSRVTEDSARLSWTAPDAAFDSFAIYYIEWTAYGEAIVLTVPGSERSYDLTGLKPGTEYVVRISGVKCGIVSFPLSAIFTT
notes: as for B1

ELISA Fc Control (RLU) [1]: 2000 RLU | ELISA HSA (RLU) [2]: 720 RLU | ELISA CD137-Fc (RLU) [3]: 875000 RLU
B13: ISOP120BR5P1H3 (designed binder, not shown: small tags and cut ends)
chain: LPAPKNLVVSRVTEDSARLSWEESRQFFDSFLIQYQESEKVGEAIVLTVPGSERSYDLTGLKPGTEYTVSIYGVVHRAWLRWNGSNPLSAIFTT
notes: as for B1
